Assays:
[1] = target: T1, human prostate specific membrane antigen (hPSMA), membrane form on cells (human, UniProt Q04609 1-750); assay: flow cytometry on hPSMA/L929 cells (FIG. 2)
T1 construct: endogenous on LNCaP clone FGC cells; also called membrane hPSMA
Method: (§1) The cells were suspended in a staining buffer [PBS containing 0.1% NaN₃ and 1% FBS] at a concentration of 1×10⁶ cells/mL, and dispensed in a round-bottom 96-well plate (manufactured by Becton Dickinson) by 100 μL/well. After the centrifugation (2000 rpm, 4° C., 2 minutes), each antibody obtained in Example 7 was added to the pellet obtained by removing the supernatant, and suspended, and then left stand at ice temperature for 30 minutes.
(§2) After the further centrifugation (2000 rpm, 4° C., 2 minutes), the pellet obtained by removing the supernatant was washed twice with 200 μL/well of the staining buffer. Thereafter, 1 μg/mL of RPE fluorescently labeled mouse anti-human antibody (hinge region) clone 4E3 antibody (manufactured by Southern Bioblot) was added thereto by 50 μL/well and incubated at ice temperature for 30 minutes. After washing twice with the staining buffer, the cells were suspended in 200 μL/well of the staining buffer, and the fluorescence intensity of each cell was measured with the flow cytometer FACSCANTO II (manufactured by Becton Dickinson). The obtained results are illustrated in FIG. 2 and FIG. 3.
hPSMA/L929 cells were stained with anti-TRAILR2 monoclonal antibody E11 antibody, anti-hPSMA monoclonal antibody PI134 antibody, or hTRAILR2-hPSMA bispecific antibody E11-CH1-PI101VH antibody, E11-CH1-PN7VH antibody or E11-CH1-PN170VH antibody. The obtained results are illustrated in FIG. 2.

[2] = target: T2, human TRAILR2 (tumor necrosis factor-related apoptosis inducing ligand receptor 2) (human, UniProt O14763 56-440); assay: flow cytometry on hTRAILR2/L929 cells (FIG. 3)
T2 construct: whole, on cells; The hTRAILR2/L929 cells are only cited from WO 2002/094880, and the construct expressed on them is not described here; On PC3 and LNCaP clone FGC cells the receptor is endogenous; also called hTRAILR2; death receptor 5
Method: as §1
as §2, with “3. […]” for “3.”

[3] = target: T1, human prostate specific membrane …; assay: flow cytometry

T1 sequence (Q04609 whole entry): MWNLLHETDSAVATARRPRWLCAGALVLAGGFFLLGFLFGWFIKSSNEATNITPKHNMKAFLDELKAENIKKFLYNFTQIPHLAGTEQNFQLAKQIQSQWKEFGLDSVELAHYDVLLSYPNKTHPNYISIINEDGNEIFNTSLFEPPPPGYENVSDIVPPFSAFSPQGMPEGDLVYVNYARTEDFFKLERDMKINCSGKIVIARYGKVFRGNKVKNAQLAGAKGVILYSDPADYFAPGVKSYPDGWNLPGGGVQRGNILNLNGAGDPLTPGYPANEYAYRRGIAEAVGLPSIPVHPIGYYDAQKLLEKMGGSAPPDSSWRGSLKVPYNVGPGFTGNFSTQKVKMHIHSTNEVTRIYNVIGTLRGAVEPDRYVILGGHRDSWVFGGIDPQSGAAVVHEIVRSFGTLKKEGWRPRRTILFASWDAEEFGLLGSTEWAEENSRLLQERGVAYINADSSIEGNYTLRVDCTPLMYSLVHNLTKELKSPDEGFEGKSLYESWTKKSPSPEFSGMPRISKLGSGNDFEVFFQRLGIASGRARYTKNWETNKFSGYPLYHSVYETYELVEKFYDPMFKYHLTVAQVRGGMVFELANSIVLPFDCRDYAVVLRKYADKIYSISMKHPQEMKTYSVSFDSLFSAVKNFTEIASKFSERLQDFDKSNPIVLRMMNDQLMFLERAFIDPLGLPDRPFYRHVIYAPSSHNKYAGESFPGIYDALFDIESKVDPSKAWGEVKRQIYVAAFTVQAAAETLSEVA

| binding result [1] | binding result [3] | Binder | binding result [2] |
| --- | --- | --- | --- |
| binds |  | anti-hPSMA monoclonal antibody PI134 antibody (antibody, human IgG1, V domains shown, Its VL is the same as that of the E11 antibody) VH: QVQLVQSGAEVKKPGASVKVSCKASGYTFTTYDINWVRQATGQGLEWMGWMNPNNGYTGYAQKFQGRVTMTRNTSISTAYMELSSLRSEDTAVYYCARTNWVYWYFDLWGRGTLVTVSS VL: EIVLTQSPATLSLSPGERATLSCRASQSVSSFLAWYQQKPGQAPRLLIYDASNRATGIPARFSGSGSGTDFTLTISSLEPEDFAVYYCQQRSNWPLTFGPGTKVDIKR | no binding |
|  | binds | hTRAILR2-hPSMA heterobispecific antibody E11_PN7 Hetero antibody (bispecific antibody, human IgG1, also called hE11_PN7 Hetero antibody) heavy 1: not shown heavy 2: not shown VL: EIVLTQSPATLSLSPGERATLSCRASQSVSSFLAWYQQKPGQAPRLLIYDASNRATGIPARFSGSGSGTDFTLTISSLEPEDFAVYYCQQRSNWPLTFGPGTKVDIKR |  |
|  | binds | hTRAILR2-hPSMA bispecific antibody fragment E11-CH1-PN7VH F(ab′)2 (bispecific antibody, CH2 and CH3 are deleted; The heavy chain carries a C-terminal FLAG-tag and His-tag and dimerises through cysteine in the hinge region; All light chains carry E11 VL) heavy: QLQLQESGPGLVKPSETLSLTCTVSGGSIISKSSYWGWIRQPPGKGLEWIGSIYYSGSTFYNPSLKSRVTISVDTSKNQFSLKLSSVTAADTAVYYCARLTVAEFDYWGQGTLVTVSSASTKGPSVFPLAPCSRSTSESTAALGCLVKDYFPEPVTVSWNSGALTSGVHTFPAVLQSSGLYSLSSVVTVPSSSLGTKTYTCNVDHKPSNTKVDKRVEVQLVQSGAEVKKPGASVKVSCKASGYTFTTYDINWVRQATGQGLEWMGWMNPNSGYTGYAQKFQGRVTMTRDTSISTAYMELSSLRSEDTAVYYCARTNWESWYFDLWGRGTLVTVSSASTKGPSVFPLAPCSRSTSESTAALGCLVKDYFPEPVTVSWNSGALTSGVHTFPAVLQSSGLYSLSSVVTVPSSSLGTKTYTCNVDHKPSNTKVDKRVESKYGPPCPPCPDYKDDDDKHHHHHH VL: EIVLTQSPATLSLSPGERATLSCRASQSVSSFLAWYQQKPGQAPRLLIYDASNRATGIPARFSGSGSGTDFTLTISSLEPEDFAVYYCQQRSNWPLTFGPGTKVDIKR |  |
|  | binds | hTRAILR2-hPSMA bispecific antibody fragment E11-CH1-PN7VH Fab (bispecific antibody, The hinge region is deleted from E11-CH1-PN7VH F(ab′)2; The light chains carry E11 VL, as in the F(ab′)2) heavy: QLQLQESGPGLVKPSETLSLTCTVSGGSIISKSSYWGWIRQPPGKGLEWIGSIYYSGSTFYNPSLKSRVTISVDTSKNQFSLKLSSVTAADTAVYYCARLTVAEFDYWGQGTLVTVSSASTKGPSVFPLAPCSRSTSESTAALGCLVKDYFPEPVTVSWNSGALTSGVHTFPAVLQSSGLYSLSSVVTVPSSSLGTKTYTCNVDHKPSNTKVDKRVEVQLVQSGAEVKKPGASVKVSCKASGYTFTTYDINWVRQATGQGLEWMGWMNPNSGYTGYAQKFQGRVTMTRDTSISTAYMELSSLRSEDTAVYYCARTNWESWYFDLWGRGTLVTVSSASTKGPSVFPLAPCSRSTSESTAALGCLVKDYFPEPVTVSWNSGALTSGVHTFPAVLQSSGLYSLSSVVTVPSSSLGTKTYTCNVDHKPSNTKVDKRVDYKDDDDKHHHHHH VL: EIVLTQSPATLSLSPGERATLSCRASQSVSSFLAWYQQKPGQAPRLLIYDASNRATGIPARFSGSGSGTDFTLTISSLEPEDFAVYYCQQRSNWPLTFGPGTKVDIKR |  |
| binds |  | hTRAILR2-hPSMA bispecific antibody E11-CH1-PN170VH antibody (bispecific antibody, IgG4, domain: constant region; The heavy chain is E11 VH, an IgG4 CH1 linker and PN170 VH, followed by the constant region of the vector; All four light chains carry E11 VL) heavy: not shown VL: EIVLTQSPATLSLSPGERATLSCRASQSVSSFLAWYQQKPGQAPRLLIYDASNRATGIPARFSGSGSGTDFTLTISSLEPEDFAVYYCQQRSNWPLTFGPGTKVDIKR |  |
| binds |  | hTRAILR2-hPSMA bispecific antibody E11-CH1-PI101VH antibody (bispecific antibody, IgG4, domain: constant region; The heavy chain is E11 VH, an IgG4 CH1 linker and PI101 VH, followed by the constant region of the vector; All four light chains carry E11 VL) heavy: not shown VL: EIVLTQSPATLSLSPGERATLSCRASQSVSSFLAWYQQKPGQAPRLLIYDASNRATGIPARFSGSGSGTDFTLTISSLEPEDFAVYYCQQRSNWPLTFGPGTKVDIKR |  |
